From the PETadex activity labels (doi:10.1016/j.bbrc.2018.11.148)

Key:
Conditions in all cases: pH 8; 30 °C; part of the chain shown
p-NP-C12 = substrate: p-NP-C12
p-NP-C2 = substrate: p-NP-C2
p-NP-C4 = substrate: p-NP-C4
p-NP-C6 = substrate: p-NP-C6
p-NP-C8 = substrate: p-NP-C8

B1: unnamed (protein)
chain: MNFPRASRLMQAAVLGGLMAVSAAATAQTNPYARGPNPTAASLEASAGPFTVRSFTVSRPSGYGAGTVYYPTNAGGTVGAIAIVPGYTARQSSIKWWGPRLASHGFVVITIDTNSTLDQPSSRSSQQMAALRQVASLNGTSSSPIYGKVDTARMGVMGWSMGGGGSLISAANNPSLKAAAPQAPWDSSTNFSSVTVPTLIFACENDSIAPVNSSALPIYDSMSRNAKQFLEINGGSHSCANSGNSNQALIGKKGVAWMKRFMDNDTRYSTFACENPNSTRVSDFRTANCS
B1 was tested, and the Km (p-NP-C12) was 2280 µM, the kcat (p-NP-C12) was 1530 s⁻¹ and the kcat/Km (p-NP-C12) was 671000 M⁻¹ s⁻¹. The Km (p-NP-C2) was 431 µM, the kcat (p-NP-C2) was 1590 s⁻¹ and the kcat/Km (p-NP-C2) was 3.69e+06 M⁻¹ s⁻¹. It also gave a Km (p-NP-C4) of 315 µM, a kcat (p-NP-C4) of 1350 s⁻¹ and a kcat/Km (p-NP-C4) of 4.3e+06 M⁻¹ s⁻¹. It also gave a Km (p-NP-C6) of 52.8 µM, a kcat (p-NP-C6) of 1350 s⁻¹ and a kcat/Km (p-NP-C6) of 2.55e+07 M⁻¹ s⁻¹. The Km (p-NP-C8) was 48.1 µM, the kcat (p-NP-C8) was 519 s⁻¹ and the kcat/Km (p-NP-C8) was 1.08e+07 M⁻¹ s⁻¹.
